Experimental data: patent US20070077212A1, “Protein with activity of hydrolyzing amylopectin, starch, glycogen and amylose, gene encoding the same, cell expressing the same, and production method thereof” (LIFENZA CO., LTD., priority 2004, published 2007)
Entries after “also recorded” stand apart in the source; their conditions may differ.

Legend:
Type in all cases: biochemical
[1] = Activity staining on starch-containing PAGE gel; settings: 30 min at 37° C.
Description: For sodium dodecyl sulfate-polyacrylamide gel electrophoresis (SDS-PAGE), protein samples were loaded onto 10% polyacrylamide gel in Tris-glycine buffer (pH 8.8). The polyacrylamide gel contained 1% starch in order to detect whether the protein samples could degrade starch polysaccharide. After completion of the electrophoresis, SDS was removed by washing the gel with 50 mM Tris-HCl buffer (pH 8.0) and a 20% 2-propanol solution for 1 hour. The gel was immersed in a reaction buffer (50 mM sodium acetate, 5 mM CaCl2, pH 5) at 37° C. for […] and then in an iodide solution (0.3% iodide, 3% potassium iodide) for 10 min, and washed with distilled water. The starch hydrolyzing activity was identified by the appearance of a clear zone against a brown background.
Following IPTG induction in E. coli, the cells were harvested, and disrupted by sonication. Proteins were purified using His-tagged affinity column and analyzed by SDS-PAGE (10%) (FIG. 3, lane 1). The band for the mainly expressed protein corresponded to 73 kDa (LSA+His-tag). To examine the ability of the purified protein to degrade polysaccharides such as starch, electrophoresis was carried out using a PAGE gel containing starch. After completion of the electrophoresis, the gel was allowed to stand for 30 min at 37° C. and stained with an iodine solution. […]

[2] = Relative substrate specificity of LSA enzyme: starch
Description: (§1) The reducing value of the carbohydrolase was determined by a DNS (3,5-dinitrosalicylic acid) method in combination with a copper-bicinchoninate method. That is, 100 μl of copper-bicinchoninate was added to 100 μl of an enzyme solution, and allowed to react at 80C. for 35 min, followed by being cooled for about 15 min. Absorbance was measured at 560 nm.

[3] = Effect of metal ions, chelating agents and denaturants on LSA enzyme activity
Description: as §1
Effects of EDTA, EGTA and metal ions on enzyme activity were measured. EDTA and EGTA were each used at a final concentration of 1 mM. As for metal ions, they included ZnCl2, CuS04, CaCl2 and MgCl2 and were used at a final concentration of 5 mM. The enzyme activity was also measured in the presence of dodesyl sulfate (SDS, 0.1%, 0.5%, 1%, 2%), urea (2M), acetone (0-80%) and ethanol (0-70%). For the measurement, the enzyme was allowed to react at 37° C. for 30 min with 2% starch as a substrate.

[4] = Relative substrate specificity of LSA enzyme: dextran
Description: as §1

[5] = Relative substrate specificity of LSA enzyme: pullulan
Description: as §1

[6] = Relative substrate specificity of LSA enzyme: amylodextrin
Description: as §1

[7] = TLC analysis of reaction with maltooligosaccharide series; settings: mixture of maltooligosaccharide series
Description: FIG. 8 is a photograph of a TLC result showing the enzymatic activity of the LSA of the present invention in which starch samples (1% w/v) are analyzed, along with maltodextrin (Mn), before and after being hydrolyzed by the enzyme (lanes 1 and 2 in panel A, respectively) and maltooligosaccharide samples (1% w/v) are analyzed after purified LSA is allowed to react with a series of maltooligosaccharides including G1 (glucose) to G7 (maltoheptaose) (lanes 1 to 7 in panel B, respectively).
(§2) Subsequently, the malto oligosaccharides were degraded into maltopentaose and lower oligosaccharides.

[8] = Relative substrate specificity of LSA enzyme: glycogen
Description: as §1

[9] = Relative substrate specificity of LSA enzyme: amylose
Description: as §1

[10] = TLC analysis of starch hydrolysis products; settings: 2% starch
Excerpt: as §2

[11] = Assay for optimal pH and temperature and stability of enzyme
Description: as §1
The enzyme LSA was assayed for optimal pH by measuring reaction rates in the range of pH 3-9 at intervals of pH 1.0. For this purpose, 2OmM citrate phosphate buffer (pH 4.0), citrate/phosphate buffer (pH 5-6) and sodium phosphate buffer (pH 7-9) were used. After reaction at 37° C. for […], the carbohydrolase activity of the enzyme was determined by a DNS method. Also, the pH stability of the enzyme was measured after the enzyme was added to each buffer and allowed to stand for 3 hours at 22° C.
The optimal temperature of the enzyme was determined by measuring the reaction rates of the enzyme which had been allowed to stand for 30 min at various temperatures (20-80° C., 10C. interval). […] 1% (w/v) starch was used as a substrate in determining the activity and stability of the enzyme.

[12] = Relative substrate specificity of LSA enzyme: alpha-cyclodextrin
Description: as §1

[13] = Relative substrate specificity of LSA enzyme: amylopectin
Description: as §1

B1: LSA: carbohydrolase derived from Lipomyces starkeyi, amino acid sequence SEQ. ID. No. 1, expressed in E. coli; hydrolyzes amylopectin, starch, glycogen and amylose (protein)
chain: MLLINFFIAVLGVISLSPIVVARYILRRDCTTVTVLSSPESVTSSNHVELASHEMCDSTLSASLYIYNDDYDKIVTLYYLTSSGTTGSVTASYSSSLSNNWELWSLSAPAADAVEITGASYVDSDASATYATSFDIPLTTTTTSSSSASATSTSSLTTTSSVSISVSVPTGTAANWRGRAIYEIVTDRFARTDGSTTYLCDVTDRVYCGGSYEGIINMLDYIEGMGFTAIWISPIVENIPDDTGYGYAYHGYWMKDIFALNTNFGTADDLIALATELHNRGMYLMVDIVVNHFAFSGSHADVDYSEYFPYSSEDYFHSFCWITDYSNETNVEQCWLGDDTVPLVDVNTELDTVKSEYQSWVEELIANYSIDGLRIDTVKHVEMDFWAPFEEAAGIYAVGEVFDGDPSYTCPYEENLDGVLNYPVYYPVVSAFESVSGSVSSLVDMIDTLKSECTDTTLLGSFLENEDNPRFPSYTSDESLIKNAIAFTMLSDGIPIIYYGEEQGLNGGNDPYNREALWLTGYSTTSTFYKYIASLNEIRNEAIYKDDTYLTYENWVIYSDSTTIAMRKGFTGNEIITVLSNLGTSGSSYTLTLSNTGYTASSVVYEILTCTAVTVDSSGNLAVPMSSGLPKVFYEESQLVGSGICSM
modifications: E. coli BL21(DE3)pLysS
notes: ID; No. 1, expressed in E. coli; hydrolyzes amylopectin, starch, glycogen and amylose
With B1 the “starch degradation on gel, iodine staining” value [1] was “clear zone”, the “degradation of starch (soluble) (in words)” value [2] was “strongly” and the “Relative Activity (%)” value ([2]; substrate Starch) was 100%. For the same molecule, the “effect on enzyme activity” value ([3]; 1 mM EDTA) was “inhibited”, the “increase of starch degradation activity” value ([3]; 5 mM Ca+) was “about 315%” and the “effect on starch degradation activity” value ([3]; 5 mM Cu^2+) was “inhibited”. The “increase of starch degradation activity” value ([3]; 5 mM Mg^2+) was roughly 220%, the increase in activity ([3]; 10-20% ethanol solution) was 1.25-1.33 fold and the increase in activity ([3]; 10-40% acetone) was 1.03-1.22 fold. For the same molecule, the “activity relative to optimal activity” value ([3]; 60% acetone) was “lower than 50%”, the “activity relative to optimal activity” value ([3]; 60% ethanol) was “lower than 50%” and the “Relative Activity (%)” value ([3]; Acetone 20%) was 122%. For the same molecule, the “Relative Activity (%)” value ([3]; Acetone 30%) was 115%, the “Relative Activity (%)” value ([3]; CaCl2 5 mM) was 315% and the “Relative Activity (%)” value ([3]; CaCl2 + EDTA 5 mM/1 mM) was 185%. The “Relative Activity (%)” value ([3]; CuSO4 5 mM) was 20%, the “Relative Activity (%)” value ([3]; CuSO4 + EDTA 5 mM/1 mM) was 12% and the “Relative Activity (%)” value ([3]; EDTA 1 mM) was 46%. For the same molecule, the “Relative Activity (%)” value ([3]; EGTA 1 mM) was 105%, the “effect on enzyme activity” value ([3]; EGTA (1 mM; EGTA-containing solution)) was “not inhibited; also recorded: not influenced” and the “Relative Activity (%)” value ([3]; MgCl2 5 mM) was 220%. For the same molecule, the “Relative Activity (%)” value ([3]; MgCl2 + EDTA 5 mM/1 mM) was 129%, the “effect on starch degradation activity” value ([3]; SDS) was “completely inhibited” and the “Relative Activity (%)” value ([3]; SDS 0.1%) was 66%. For the same molecule, the “Relative Activity (%)” value ([3]; SDS 0.5%) was 49%, the “Relative Activity (%)” value ([3]; SDS 1%) was 24% and the “Relative Activity (%)” value ([3]; SDS 2%) was 12%. The “Relative Activity (%)” value ([3]; Urea 2M) was 115%, the “effect on starch degradation activity” value ([3]; acetone) was “increased” and the “Relative Activity (%)” value ([3]; additive: None, 2% starch, 37° C., 30 min) was 100%. For the same molecule, the “effect on starch degradation activity” value ([3]; urea) was “increased”, the “degradation of dextran (in words)” value [4] was “degrade; also recorded: weakly” and the “Relative Activity (%)” value ([4]; substrate Dextran, relative to starch) was 4%. For the same molecule, the “degradation of pullulan (in words)” value [5] was “degrade; also recorded: weakly”, the “Relative Activity (%)” value ([5]; substrate Pullulan, relative to starch) was 3% and the “degradation of amylodextrin (in words)” value [6] was “weakly”. The “Relative Activity (%)” value ([6]; substrate Amylodextrin, relative to starch) was 17%, the “degradation products of G6” value [7] was “G2+G4 or into G3+G3” and the “hydrolysis of G2” value [7] was “did not hydrolyze”. The “hydrolysis of G3” value [7] was “did not hydrolyze”, the “degradation of glycogen (in words)” value [8] was “strongly” and the “Relative Activity (%)” value ([8]; substrate Glycogen, relative to starch) was 80%. For the same molecule, the “degradation of amylose (in words)” value [9] was “weakly”, the “Relative Activity (%)” value ([9]; substrate Amylose, relative to starch) was 41% and the “hydrolysis products, early stage of reaction” value [10] was “oligosaccharides larger than maltopentaose were produced”. For the same molecule, the “hydrolysis products, final” value [10] was “maltotriose and maltotetraose were predominant”, the “optimum pH” value [11] was 6 pH and the “pH range in which activity is 90% of its maximum” value [11] was 5-8 pH. The “pH range in which amylase activity is kept stably” value [11] was 5-8 pH, the “temperature of optimal activity” value ([11]; 1% (w/v) starch) was 40 °C and the “temperature range of stability” value ([11]; 1% (w/v) starch) was 20-50 °C. The “activity after incubation, relative to stable temperatures” value ([11]; incubation at 60° C. for 3 hours) was 70%, the “degradation of a-cyclodextrin (in words)” value [12] was “degrade; also recorded: weakly” and the “Relative Activity (%)” value ([12]; substrate alpha-CD, relative to starch) was 4%. The “degradation of amylopectin (in words)” value [13] was “strongly” and the “Relative Activity (%)” value ([13]; substrate Amylopectin, relative to starch) was 141%.
